Legend:
[1] = target: His6x-CutF, purified (Klebsiella pneumoniae) (UniProt A6T4Z5); test: SEC; purified His6x-tagged core enzymes, alone and together, on the Superose 6 column
[2] = target: cmcD (BMC-P shell protein) (Klebsiella pneumoniae); test: cryo-EM structure; small type cmcABC′ + cmcD + CutC_(336–1128) BDPs (gel filtration 90-100 ml), 1 mg/ml in 100 mM NaCl, 20 mM Tris-HCl pH 8.0; pT = 4 icosahedral map at 3.3 Å

| stoichiometry N [1] | stoichiometry N [2] | Substance |
| --- | --- | --- |
| 4 |  | His6x-CutF, purified (from UniProt A6T4Z5 1-239) (enzyme) |
|  | 5 | cmcD (BMC-P shell protein) (natural protein) |
